Assay results taken from a protein production outcome set (Wang et al. 2014).

test: label from the status in PepcDB records

Sequence	protein production
MIIWQPDQKINNGRFIIQGKPLGEGGFGITYKALEPSTGKLYAIKTLNQQMQLLRSDFAEQQIKFINEALTIKGFDHPHILKVHEVIQEGELFGVVMEYIDGVTLFEYVQDKGQLSETEALLYVNQIGQALELIHQKQHLHRDIKPENILLRHTTRKAILIDFGLAREFTIDQTGSMTNAKTEGYAPPEQYERRGRFDAYVDVYALAATLYNLLTGKVPLPVNFRKAGIPLPPPKQFNSQISQRVNDAILKGMELEPQERTPTVLEFRKNLGLVSSGGAEVQLKSSVGMDYRQLRDLLAVGKWKEADAETARVMLAAMKREKEGWLREEDTWFFPCEDLRTIDQLWVKYSNGRFGFSVQKRIYQSLGGKRSYDEEIWRAFGDKVGWRKGGEWLYYKDITFDITAPEAHLPCYTLTIPYTSRGEVGYTDYSPGFGLWWWWGGGLFSRVETCKM	failed
MIIYILINIAIVLLILGFDLYRHRFRQLKFSSILLSVLINSMIDIFAINQFNFITMFTVTLFMIWTLLQIYLNFKLYPFVISDQKFIAIILAIVISLLQFITDKSSTQSVYMSIPYLSPTIFIIGAILLFVGTFKIDEVERLSLFRKIKRPMTTGTIIIILSLISTMILTPFWYVFLIIYSLLIGFILWQGVFFIKDKK	failed
MIKEARLNDYMGDEVWYVPATRNMLNMLGIRTHYIDNNSTGVNIFLKEPLYVGKVVINIYGIKIEKSVREYPKIPELVRKLGINIEYLPFNYTKNESYWENLKLKIWEIAERNGFLEYETYSKFPGVYYVIPVENYERFMKELSNFSDIVVVPGYKYPDEENIHKYLNTEHPFLGKDLIALGMLANDKPLYWRLPGIIEHALIVLIVAFVSYKIARSYLATLISATFVALDPLLFATGIVAMLDIHVAFFVALFMLFLTIRRLRISGISLGLAAATKLSGAFVFPILWAKILKEEDLKEFIISGVVLPVIAFLVPEIPIIKAIGFIPWLEEFMGSFSWHLSFKGEHPAEAPFWLWFISLKPFPFHFNPDVYAVTDPILMISMIAFIFAVPYVSLRRKGLGEIFWMFWSIIGFFALQYILGGKTQFIFYATPLVPPGAVALGVISYEIIKWEYFERSVKIYMNYLRSLKEFIKR	failed
MIKILGHHISTLSITLALYETLIFMCVLYSFIFIMSFFFNIPVPEKLSMVILLALTATIAAGSLGLYNQRLFGDFKEFIWRIALTLPLILLAVLFVSFAYGEITATDQSPFYLAAAFGIPAALLLVVLGRGICFRIPGIKAFRRRILVLGTGEMADRLAALETSQPYRHYEIIGFVALGDDPAPLGEKWRVFDRNCIETRHDLLKICADHNINEVIFAASERRRANSSTFGLPVWDLLECRLMGIHVAEYASFWERETGRIDLDHLRPGWLIFSEGFRNSSRRMIAKRFFDVITALLLVILSLPVLVAAAIAVKLSSPGPVFYRQERVGVNGKPFNLIKFRSMPIDAEKNGPVWGTVKDKRATGVGSLLRRTRIDEIPQVFNVLRGDMSFIGPRPERPVFVEELSRELDFYGERHAVRPGISGWAQINYPYGASVADAKQKLSYDLYYIKNGSLFLDIIILFQTFRVVLWPEGSKEKAGAVVR	failed
MIKKNNLILIKLKNSMKKMIKIAFVAAFVAIAGYGVYTNQKSETLSDLTLANVEALAGGESGGYYCCSPYSYECYRIVGGGIVHGLRLPLPC	failed
MIKLIHNANIVLEDMILENGHLIIEGDTIKKVSNDKIDYAFDFNEIDEIIDAKNLYVIPGIIDIHSDAIEKEIEPRPSTLLPFNMAFYELDKKLPANGITTVYHSISLGDGVGVRSIDNSLKMIKNIDSYKNIDSKSINHKVHLRYEVLYYEGLEKVLELLDENKIDYLSIMDHSPGQGQYTNPTFYKEYATKVWGVTENYVDTWLDDLVNLHDNLDWNKIANIIGIAKTKNINVASHDDDTLEKMDFIKNIGINVSEFPITLEVAKHSKKLGVLTCLGAPNIVRGKSHNNNLKAMDAILEDCCDIVCSDYLPSAMIKSMCIVAERINNLNKAVSLFTSNPAKAVGIYDERGSIKENKKADLVLVDIDSEYPKVVNTIVNGKTVYKREV	failed
MIKLIVSDLDETLVGPDGNVSEENIEAIKKATQKGVKFVPNTGRGFESVQPLLETLGLKGKANEFVISYNGGVIVENQNFDVIQANAFSFEQATQIFDITKQHLENSTHIYTLNDVYVFNEVEEDNEYIRSRGVRTIRFEHDNLDTLKDEPIFKIITMNPDFNKRKQIKAEVLDKVNFDVNATFSSDRYTEFNLKGVDKGQASLELGRHLGIKADEIMALGDNNNDVAMLKSVGLPVVVSNASASAKANAKYIAKGNYETGVAEAINKFVLGE	failed
MIKLLKKINIKSIIELVKKDFKLKLISLSVGIVMWFLVIGGVNPVVTRQFTDVPVSFKNQSVLESRKLIRVSPENPTVTVTITGKRSDVYSVNKSDIVAEVNLQNGITSGAHRLSINYKVPYNVQFKSASDNDLLVTLDEEISKTYKVEVETIGQIKNKNQVVAKKEPADSEVVVKGPVSYVNKVKRVRCVVDVTNKDGDEVVQSKIVPVDELNKEVKKVSLSKTDTNVSIGFKNFKEVPIKLVEINSPPSDVRILKKDIVPNIISIVGNLTSLEQISQINTKPFDLSQIKESGSYNLNLELPSDVTLVNNDLKVVINIDVDKKIEKTLEIDTSNIEIENESGKDILLKGLQDKVKVTVRGYESDLAKLNAEDIRLYISVKKEDVGKNVQIKAKNIENIEIAKISNDIVQAIGK	failed
MIKLLLLDVDGTLTDGSLYFDENFHEIKAFNVKDGLGMTLWQKLGKKIAIITGRTSIMVKKRMESLGVQFVFMGVENKNTVIERLKKDLQLSAQEIACVGDDYNDLGMFKACALSFAPFDAHPLLKSKAYKVLQNSGGKGAVREAIDYLLTLEGLQDEALKLYL	failed
MIKNDGKMMRVRIAKERSDLCDLTAAAIKATYNTRNPCEVERCIDVLNHLKSLSLSVKDIRLSESIVKLETLRSHRNPRIRKEAQALFHSWLKTFYAHGSDNSFTAALTKDRLKMKKHVLKMCSELKKKEEPGTMARQVTAFSVLKNKEDERSQTTVEAVESKTTIKLSELNRKEDQRSLTRETEKNKARNSFLALKQKEDHRSETCVEKYFKKETKTNLKQLNMKTRRVSLEDVTTKKPHEDGSLIKKTKTEKELKKKKVDEMVKLFEAAKKAADVANAKGVLSGKPEVSRCIDALSLLMKINITPKPKEPRRMMDKLEGLTKHKDRKICHVASALLHLWRQRIREQERKKSVTKASSKTRKLSYVKIIWLEQIKVSCGFKRF	failed
MIKNNIKHTWYFGHPQQLVWDYLTKPELLSQWLMESDFQPVAGHTFMFNTKPKVKVGFDGLIYCQVLKVQPDHELEHHHHHH	not failed
MIKQDVICYEKEDVVKRNNINITGGGEKTVLLAHGFGCDQNMWRFMLPELEKQFTVIVFDYVGSGQSDLESFSTKRYSSLEGYAKDVEEILVALDLVNVSIIGHSVSSIIAGIASTHVGDRISDITMICPSPCFMNFPPDYVGGFERDDLEELINLMDKNYIGWANYLAPLVMGASHSSELIGELSGSFCTTDPIVAKTFAKATFFSDYRSLLEDISTPALIFQSAKDSLASPEVGQYMAENIPNSQLELIQAEGHCLHMTDAGLITPLLIHFIQNNQTRA	not failed
MIKTSPPMNKLKLNIALSAFFFALVGCQSMPNDPVDIKADLDASIKETKRLNGPKALTQVPNSVQQELMLNNMDQAKQGMLAEKRLEVSATEVDAKDFFQAIVRGSRYNVVIHPDVTGQISLSLNNVTLSEALTVVEDVYGYEIIRRGNVVKVFPPGIRTETIALNYLFLKRFGSSSTTINSGGVSENDPNSGNSSNGNSSNSNNSNSGSNNNQSGNNGSSNQNSGINLYTENESNFWDELKESLTAFVGTGEGRSVIVSPQAGLVTVRALPQELTAVKKFITATESHLHRQVIIEAKIMEVTLNDDFQQGIKWNKVLDQVGSADIIYSTTGNVVGNVISNTIGGVNSINFSKQTSGSDFSGVIELLQTQGNVQVLSSPRITATNNQKAVIKVGEDEYFVTEVSSTTTTGTSTTTTPEVELTPFFSGIALDVTPQISKDGSVILHVHPSVTITEEQSKTIKIGDTTLVLPLAQSSVRESDTIIRANSGEVVVIGGLIETYNIDIESKTPILGDIPYLGELFKNKSQKSQKRELVIMLKPIVVGQDTWKNQLQDARSLLTKWFPEEVDACELSNDGTLTQECQAQCADAEYATEHGVCQMAAQNAASNDN	failed
MIKVLDQNTINKIAAGEVIEKPSSVIKELVENSIDSGATAITVEVKGSGLSFLRVTDNGSGIKKDEVKLAFLRHATSKLVTVEDLLSISSLGFRGEALASIASVAQVEMITKTADDVTGLRYQIHGGREISSEEIGAPGGTTIIVRNLFYNTPARKKFMKTDLTEISYIYDLMCRICMSHPKISFKFISNGTDKLFTSGNGKLRDIIYHIYGRDITSNLLEINAENDYMKISGYIARPCISRGNRSFEGYYVNHRYIKSAVLTKAIEDAFRTFVMIHKFPFTEINFQVRPDLLDVNVHPTKMELKFANSQDIYSFTYNAIRETLLFKELIPDVAPGKDSKPETYKQRNVGDAPEAFENKRREALVGPVAQAKAAPTHMVTDNSLVKSENAPVLDQRQMKPERASTSESQARPEGTSTALQQPLKPDNIPAPVRPIIDVIDETKDTNTSAEKKSDNNTYEQPQKSGYSYSGRHQEIPGSKVAESKASYMAVDDRKYVQQNMFQEKFLTKEARAKHRLIGQLFKTYWLIEYDGKFFIMDQHAAHEKVKYEELMENYKNKKIYSQYLMPPAVVTLSATEIEFLHENMETFEALGYQIENFGGREFKLNAVPDNLFGLDGRELFIDFIADASSSAKKVTIDVFIHKLSTMACKAAIKGNTEISFKEADALIDQLLKLENPYTCPHGRPTVISMTEAEIEKKFKRIV	failed
MIKVLIFFGIILLGLCISPWIVGNTGYVYIAAGDYQLETSLAFGIIMLIVFYALFQVLEWLVITVINLLLRSRFIPHQWRRRSAKKHTLMGALAIAEEDWPAAERAMIKGADNGELPALNLLAAARAAQHQNKTAERDQYLARAETQPLAANAVATTRTRYLLKQGEFTLARAELDKLAPTSKSKAPVLKLALELYRAQQDWEALKLLLPILKKRQILDDIQLNSLSVETHSALLQTASLKGEDALEQCWQWLSRDERNQSEFLAIYTMGLCRFNRKEQAIKLLSKKLRSSPESALLEVIPQIVTAHDTDIRKQLLKHEITHENNADYQRCLALLYQQTRDMKEAKTCWQNVCRIAPTKDSWLSLARIQEQLGEQGHANQSYRQAVTL	failed
MIKVNVMYPYTEGARFDHAYYCDRHMPMVKARLGSACAYYTVEKGLAGSASGAPPAFVAMCAFICDSAENFYAAMYYHGAEILGDIANYTDIAPVLQISEVVVERSDR	not failed
MILAVLFANSVGNVLIERFNGVPAEERLHWRSFLVKLGADNLKGVKNEELLVACHKSVYIVYTMLGDVSIFLVGKDEYDELALAETIYIITAAVKDVCGKPPTERVFLDKYGRICLCLDEIVWNGLLENTDKDRIKRLIRLKPPSEV	failed
MILCYGDNNIMMDIYKEIKEEMKKVYLSRDCCFVGYSGGKDSSAMLTLLWDAIAELPLEERTNPIHILTSEVGVETPAMTAYISRTLQKIQEKANEQNLPFVVHGVKPLMKESYWYKVIGRGVLPPSGNSRLRWCTDSLKVKPMQRKMKEILIASQTTTAVECFDEYDGVLMLAVRNEESARRRHSIQKHEISNDSLFSRHNDMKNILCFNPVKFLTGDEVWMLLLDRGI	failed
MILFDGMYSLGGVILSLLALMGSIYINKKDYEKYPFGKKMIEPLIVIIKSLAIFIMCIYSLTGSIKDLINGGNEVQYGYALIYALISTLGCGIAYFFLKKKGKAINSSLINIESSQWLMDALLSMGVLVGFLIANIIKHTEFIWFNRYLDPLMVIICSSVFIKMPIKSFGDGLKELLEFKADDSITLEIDKLVEGIEREYNFEDTITRVSKTGNDLRIEIDFIYNEESNIKALDEMDSLREKIFNSLSHINYEKWLNVSFTKDKKWAI	failed
MILGEIMEVLAFKNQSLIDHVNDMVKYWERIKYRYLKTIKRALEALNIKLDIEKVDEFMKILIKLHDIGKASKIYQRAIINDQEKLMGFRHELVSAYYTYHILLKKFGDKNLAFIGALTVMLHHEPIIMGQIRNLKKKELTAEVVLDKLKKFDGMIEDFEDLIKKLIGYSIGDIIKNDSNKDDIIRFVIEMSVRARHTPNSEKLRFIVGTLLLPLVMCDYKGAESREGKAPKFAEVLEVESYVI	not failed
